Experimental data taken from PMC12119765, “Unveiling the potential of copper-61 vs. gallium-68 for SSTR PET imaging” (European Journal of Nuclear Medicine and Molecular Imaging, 2025).

Columns and labels:
[1] = In vitro stability in the final formulation (10% EtOH) by radioHPLC; type: physicochemical
Procedure: The HPLC method used is detailed in Table 1.
The stability of [^61Cu]Cu-NOTA-TATE was tested in the final formulation up to 6 h after EOS. At different time points (T0, T0 + 2, T0 + 4 and T0 + 6 h) aliquots were taken and measured using the previously described radioHPLC method.

in vivo [2] = details: male, athymic Swiss Foxn1nu, mouse, whole blood, total radioactivity
Procedure: (§1) A set of fiducial markers was used for an optimal PET/MRI co-registration. The breathing rate and body temperature of the animals were monitored throughout the imaging procedures (SA Instruments SA, USA). After the PET scan, a whole-body MRI was performed on a BioSpec 9.4T MRI scanner with a body volume resonator (transmitter/receiver) with the animal in the same position for anatomical co-localization. Anatomical reference images were obtained from axial and coronal multi-slice scans. A set of fiducial markers were used on the animal bed for an optimal PET/MRI co-registration. Quantitative image processing was performed using PMOD (PMOD, v 3.6; PMOD Technologies, Zürich, Switzerland, RRID: SCR_016547). FUSION Tools were used to deliniate volumes of interest (VOIs) on the PET images co-registered with the anatomical MRI. Blood samples were collected at 1, 2, and 4 h after injection for measurement of whole-blood radioactivity concentrations.
(§2) Mice were sacrificed at 1.5–4.5 h p.i. and perfused with PBS. Organs including brain, heart, lung, liver, kidney, spleen, stomach, intestine, bone, and muscle were collected and weighted. Blood samples were collected via tail vein bleeding at different time points to monitor the residence time of the radiopharmaceuticals in the circulation. After sacrifice, urine was directly collected from the bladder for radio-HPLC analysis of radiopharmaceutical integrity. The radioactivity of each sample was measured using an automated CRC-55tW gamma well counter (Mirion Technologies - Atlanta, GA, USA). Results were expressed as the percentage of injected dose per gram (ID/g) of tissue and presented as the mean ± SEM (N = 3 per radiopharmaceutical).

healthy control mice = assay: PET/MR imaging in healthy control mice; type: in vivo
Procedure: as §1

AR42J tumor-bearing mice = assay: in vivo; details: AR42J tumor, 4 h p.i., mean ± SEM, N = 3
Procedure: (§3) Animal studies were approved by the Animal Welfare Committee of the Institute for Nuclear Sciences Applied to Health (ICNAS) of University of Coimbra (ORBEA 05-2024) and by the Portuguese National Authority for Animal Health (DGAV). Athymic male Swiss Foxn1nu mice (28–32 g, 6–8 weeks old) were purchased from ICNAS and housed under pathogen free conditions in individually ventilated cages. To establish the tumor model, animals were injected subcutaneously in the left flank with 3 × 10^6 AR42J cells resuspended in 100 µL of PBS 50 with 50% Matrigel. Tumor growth was monitored twice weekly by caliper measurements and were allowed to grow to a maximum volume of 1 cm^3.
as §2

in vivo [3] = details: male, athymic Swiss Foxn1nu, mouse, intravenous, total radioactivity; for tissue uptake at 1 h: AR42J tumor
Procedure: as §3, §2

[4] = urine sample collected 4 h after i.v. injection
Procedure: as §2

[5] = system: SSTR-expressing AR42J cells; assay: Cell uptake and internalization studies in SSTR-expressing AR42J cells; type: cell-based, rat; details: for Intracellular (internalized) activity: 2 h incubation time, 0.5 nM, Fig. 2C, percentage per million cells; for Maximum total uptake into AR42J: at 2 h, 0.5 nM radiolabeled peptide; for Membrane-bound fraction over time: glycine buffer wash fraction, 15 min to 2 h
Procedure: The AR42J cell line, a natural SSTR-overexpressing epithelial-like cell isolated from a rat pancreatic tumor, was purchased from American Type Culture Collection (ATCC, CRL-1492) (Manassas, VA, USA) and cultured in F-12 K medium (ATCC, Catalog No. 30-2004) supplemented with 20% heat-inactivated fetal bovine serum (FBS, Gibco) and 1% PenStrep. The cells were maintained under standard adherent conditions in a humidified incubator with 5% CO2 at 37° C.
Cells were incubated at 37 °C for a maximum of 2–4 h (15 min, 30 min, 1 h, 2 h, and 4 h) for ^68Ga-based and ^61Cu-based radiopharmaceuticals, respectively. At the indicated time points, the cellular uptake was terminated by washing the cells with PBS. Cell surface-bound radioactivity was removed by an acid wash (50 mM glycine, pH 2.8) at RT for 5 min. The pH was neutralized with PBS, and the cells were lysed by incubation with 1 M NaOH at 37 °C for 5 min to determine internalized radioactivity. Each experiment was performed in triplicate. […] For blocking studies, parallel experiments were performed as described above, but cells were incubated in the presence of DOTA-TATE precursor (0.5 µM) at 37 °C for the same time points.

tumor = system: tumor; set-up: method as in PMID 32297029; details: cited from earlier work
[6] = system: AR42J subcutaneous tumor-bearing mice; details: 1 h p.i., i.v.
Procedure: as §3
as §1, with “Anatomical reference images were obtained from axial and coronal multi-slice scans. A set of fiducial markers were used on the animal bed for an optimal PET/MRI co-registration.” left out, “FUSION Tools were used to deliniate volumes of interest (VOIs) on the PET images co-registered with the anatomical MRI.” left out

## C[C@@H](O)[C@H](NC(=O)[C@@H]1CSSC[C@H](NC(=O)[C@@H](Cc2ccccc2)NC(=O)CN2CCN(CC(=O)O)CCN(CC(=O)O)CC2)C(=O)N[C@@H](Cc2ccc(O)cc2)C(=O)N[C@H](Cc2c[nH]c3ccccc23)C(=O)N[C@@H](CCCCN)C(=O)N[C@@H]([C@@H](C)O)C(=O)N1)C(=O)O [[^61Cu]Cu-NOTA-TATE, metal not drawn]
[1]; after the EOS
  Time stable after EOS: at least 6 h
[1]; final formulation (10% EtOH), after 6 h of incubation
  In vitro stability (radiochemical purity by radioHPLC): > 95%
In vivo [2]; intravenous
  tissue uptake at 2 h: 0.13 ± 0.02 %ID/g
  tissue uptake at 4 h: 0.09 ± 0.004 %ID/g
In vivo [2]; iv
  tissue uptake at 1 h: 0.19 ± 0.003 %ID/g
Healthy control mice; healthy control mice, 1 h and 4 h p.i.
  Biodistribution profile in PET/MR images: rapid clearance with marked accumulation in the kidneys and bladder
AR42J tumor-bearing mice
  Tumor uptake (tumor activity): 12.81 ± 0.57 % ID/g
In vivo [3]
  tissue uptake at 1 h: 13.2 ± 1.86 %ID/g
In vivo [3]; tumor and kidney
  tissue to tissue ratio at 1 h: 4.25 ± 1.09
  tissue to tissue ratio at 4 h: 17.3 ± 4.99
In vivo [3]; tumor and liver
  tissue to tissue ratio at 1 h: 14.1 ± 4.29
  tissue to tissue ratio at 4 h: 21 ± 1.28
In vivo [3]; tumor and muscle
  tissue to tissue ratio at 1 h: 255 ± 64.7
  tissue to tissue ratio at 4 h: 495 ± 109
[4]
  Intact radiopharmaceutical in urine (radioHPLC): 100%
[5]
  Intracellular (internalized) activity: 51.4%
  Maximum total uptake into AR42J: 58.6 ± 3.6 %/10^6 cells
  Membrane-bound fraction over time: ≤ 10%

## [Cl][Cu][Cl] [[^61Cu]CuCl2, copper chloride, reference compound]
Healthy control mice; healthy mice, 1 h after injection
  Biodistribution profile in PET/MR images: accumulation profile of free copper in the liver and the intestine

## C[C@@H](O)[C@H](NC(=O)[C@@H]1CSSC[C@H](NC(=O)[C@@H](Cc2ccccc2)NC(=O)CN2CCN(CC(=O)O)CCN(CC(=O)O)CCN(CC(=O)O)CC2)C(=O)N[C@@H](Cc2ccc(O)cc2)C(=O)N[C@H](Cc2c[nH]c3ccccc23)C(=O)N[C@@H](CCCCN)C(=O)N[C@@H]([C@@H](C)O)C(=O)N1)C(=O)O [[^68Ga]Ga-DOTA-TATE, metal not drawn, reference compound]
In vivo [3]
  tissue uptake at 1 h: 8.73 ± 0.45 %ID/g
tumor
  Tumor uptake: 3.14 ± 2.07%
[5]
  Intracellular (internalized) activity: 51.2%
  Maximum total uptake into AR42J: 62.5 ± 1.9 %/10^6 cells
  Membrane-bound fraction over time: ≤ 10%
[6]
  Biodistribution profile in PET/MR images: significant tumor and bladder accumulation
